Patent publication US20150158947A1 (COMPUGEN, published 2015)
Residue numbers refer to the chain shown, from its start. Where “and” joins values, the source holds several entries; their conditions need not be identical. Identical values can stand only once. Blank lines part the entries; values can stand above or below the binder they belong to.

Tests used:
[1] = biological target: T1, human C1ORF32 protein (SEQ ID NO: 1) (human, UniProt Q71H61 21-234); experiment: cell-based or functional assay
T1 sequence: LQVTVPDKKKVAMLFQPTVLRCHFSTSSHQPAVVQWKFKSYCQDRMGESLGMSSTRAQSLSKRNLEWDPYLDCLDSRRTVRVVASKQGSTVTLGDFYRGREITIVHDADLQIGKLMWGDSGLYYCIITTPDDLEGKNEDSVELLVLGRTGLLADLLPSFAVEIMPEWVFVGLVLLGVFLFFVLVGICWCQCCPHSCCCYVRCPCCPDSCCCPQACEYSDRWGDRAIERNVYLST

[2] = biological target: C1ORF32-ECD-hIgG1 fusion protein (SEQ ID NO: 23); experiment: hybridoma binding screen by ELISA on fusion proteins SEQ ID NO: 23 and SEQ ID NO: 24 or on HEK293T cells over expressing C1ORF32
Protocol: (§1) Binding screening was performed by ELISA using fusion proteins C1ORF32-ECD-hIgG1 (SEQ ID NO: 23) and C1ORF32-ECD-mIgG2a (SEQ ID NO: 24) or stable pool of HEK293T cells over expressing C1ORF32 described in section “Generation of stable pools expressing C1ORF32 protein” herein. […] Hybridomas were stabilized, subcloned and processed for antibody production and purification.

[3] = biological target: T2, C1ORF32-ECD-mIgG2a fusion protein (SEQ ID NO: 24); experiment: as above
T2 chain: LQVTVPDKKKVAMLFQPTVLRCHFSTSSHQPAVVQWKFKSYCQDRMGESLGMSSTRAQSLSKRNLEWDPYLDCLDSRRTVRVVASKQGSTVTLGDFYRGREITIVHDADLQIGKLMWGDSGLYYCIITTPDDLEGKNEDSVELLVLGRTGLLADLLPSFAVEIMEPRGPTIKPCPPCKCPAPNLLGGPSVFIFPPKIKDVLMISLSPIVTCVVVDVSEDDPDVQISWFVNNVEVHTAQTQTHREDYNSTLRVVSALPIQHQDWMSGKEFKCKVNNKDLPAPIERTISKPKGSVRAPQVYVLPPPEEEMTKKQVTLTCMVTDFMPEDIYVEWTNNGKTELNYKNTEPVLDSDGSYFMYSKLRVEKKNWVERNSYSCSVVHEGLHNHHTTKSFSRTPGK
Protocol: as §1

[4] = biological target: T3, C1ORF32-ECD-mouse IgG2a-fused protein (SEQ ID NO: 4) (human C1ORF32 ECD, mouse IgG2a Fc); experiment: hybridoma binding screen by ELISA on ECD-mIgG2a fusion protein (SEQ ID NO: 4) or on HEK-293T cells over expressing C1ORF32
T3 construct: Purified recombinant fusion protein; also called C1ORF32-ECD-mouse IgG2a fusion protein; recombinant ECD-mIgG2a fusion protein
T3 chain: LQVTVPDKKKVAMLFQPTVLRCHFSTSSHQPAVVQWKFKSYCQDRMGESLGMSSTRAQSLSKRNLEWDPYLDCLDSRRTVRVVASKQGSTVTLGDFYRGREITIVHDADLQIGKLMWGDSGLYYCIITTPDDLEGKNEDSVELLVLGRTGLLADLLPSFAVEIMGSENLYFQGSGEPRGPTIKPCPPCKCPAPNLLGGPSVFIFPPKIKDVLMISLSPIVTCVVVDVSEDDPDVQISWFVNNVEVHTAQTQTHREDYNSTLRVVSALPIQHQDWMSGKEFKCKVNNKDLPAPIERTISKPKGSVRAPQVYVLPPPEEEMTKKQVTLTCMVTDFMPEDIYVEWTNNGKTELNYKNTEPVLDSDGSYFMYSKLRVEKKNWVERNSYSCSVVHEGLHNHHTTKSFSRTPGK
Source text: Three positive clones were further processed for subcloning in order to establish stable hybridoma clones. Hybridomas were stabilized, subcloned and processed for antibody production and purification.

[5] = biological target: T1, human C1ORF32 protein (SEQ ID NO: 1); experiment: flow cytometry on HEK293T cells expressing human C1ORF32 untagged (SEQ ID NO: 1), antibody 20 ug/ml, anti mouse DyLight 549 secondary
Protocol: (§2) FIG. 5A presents empty vector transfected cells; FIG. 5B presents human-C1ORF32 transfected cells (SEQ ID NO:1), FIG. 5C presents human-C1ORF32-HA tagged transfected cells(SEQ ID NO: 22); FIG. 5D presents chimeric mouse-human C1ORF32 transfected cells (SEQ ID NO: 8); FIG. 5E presents mouse C1ORF32 transfected cells (SEQ ID NO: 21).
(§3) Flow Cytometry analysis was performed to verify the mAbs binding to native cell surfaced C1ORF32 protein (SEQ ID NO: 1) in stable transfected cells described above. […] Anti-Cephalosporin served as negative control (SLRC, CH2025P). Recombinant HEK293T cells expressing C1ORF32 proteins, i.e. human C1ORF32 (SEQ ID NO:1), chimeric human-mouse C1ORF32 (SEQ ID NO:8) and mouse C1ORF32—Flag tagged (SEQ ID NO:21) were stained with anti C1ORF32 antibodies or anti-Cephalosporin followed by Donkey Anti Mouse-DyLight 549 conjugated secondary Ab (Jackson 715-506-150) as described in Example 6, herein. Fluorescent signal was observed.

[6] = biological target: T4, human C1ORF32-HA tagged protein (SEQ ID NO: 22) (human); experiment: flow cytometry on HEK293T cells expressing human C1ORF32-HA tagged (SEQ ID NO: 22), antibody 20 ug/ml, anti mouse DyLight 549 secondary
T4 chain: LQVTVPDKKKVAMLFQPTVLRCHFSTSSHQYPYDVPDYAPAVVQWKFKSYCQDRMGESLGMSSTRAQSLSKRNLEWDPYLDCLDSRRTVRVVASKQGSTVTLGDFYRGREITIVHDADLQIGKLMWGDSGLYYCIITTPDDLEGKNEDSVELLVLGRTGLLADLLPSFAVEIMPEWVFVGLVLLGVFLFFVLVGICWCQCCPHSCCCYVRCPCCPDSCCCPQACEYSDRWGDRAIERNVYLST
Protocol: as §2, §3

[7] = biological target: T5, mouse C1ORF32-Flag tagged protein (SEQ ID NO: 21) (mouse, UniProt B5TVM2 36-661); experiment: flow cytometry on HEK293T cells expressing mouse C1ORF32-Flag (SEQ ID NO: 21; panel title: 293-C1ORF32 HA MOUSE CELLS), antibody 20 ug/ml, anti mouse DyLight 549 secondary
T5 sequence: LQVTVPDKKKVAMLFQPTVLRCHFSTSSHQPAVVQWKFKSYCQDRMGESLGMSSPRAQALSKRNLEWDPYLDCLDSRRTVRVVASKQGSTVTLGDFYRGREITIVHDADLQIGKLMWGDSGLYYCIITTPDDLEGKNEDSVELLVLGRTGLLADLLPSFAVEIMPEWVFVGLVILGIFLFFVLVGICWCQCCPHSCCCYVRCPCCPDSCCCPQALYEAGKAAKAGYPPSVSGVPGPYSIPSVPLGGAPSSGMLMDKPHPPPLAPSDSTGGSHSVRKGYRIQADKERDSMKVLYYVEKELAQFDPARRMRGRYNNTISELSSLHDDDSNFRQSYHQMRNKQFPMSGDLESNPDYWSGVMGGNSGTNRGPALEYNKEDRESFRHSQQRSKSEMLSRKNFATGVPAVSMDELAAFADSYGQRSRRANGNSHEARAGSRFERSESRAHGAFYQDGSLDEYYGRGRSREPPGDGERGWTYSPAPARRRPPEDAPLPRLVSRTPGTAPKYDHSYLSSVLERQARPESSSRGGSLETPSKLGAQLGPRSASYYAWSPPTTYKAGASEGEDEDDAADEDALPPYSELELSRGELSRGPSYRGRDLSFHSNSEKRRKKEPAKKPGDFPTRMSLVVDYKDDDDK
Protocol: as §2, §3

[8] = biological target: T6, chimeric mouse-human C1ORF32 (SEQ ID NO: 8) (chimeric mouse (ECD) / human (tail), UniProt B5TVM2 36-249); experiment: flow cytometry on HEK293T cells expressing chimeric mouse-human C1ORF32 (SEQ ID NO: 8; panel title: 293T-C1ORF32 HA MUTATED CELLS), antibody 20 ug/ml, anti mouse DyLight 549 secondary
T6 construct: also called mouse-human chimeric C1ORF32; chimeric human-mouse C1ORF32
T6 chain: T1 sequence with T55P, S59A
Protocol: as §2, §3

[9] = biological target: T1, human C1ORF32 protein (SEQ ID NO: 1); experiment: flow cytometry titration of 5159-1 on CHOK1 cells expressing human C1ORF32
Protocol: (§4) The cells were washed once in FACS buffer, re-suspended in 25 ul of Alexa Fluor 647 conjugated F(ab′)2 fragment of goat anti mouse IgG (Jackson Immunoresearch cat#115-606-146) for 30 minutes at 4 degrees C. The cells were washed again in FACS buffer, re-suspended in 35 ul of FACS buffer and 35 ul of 4% paraformaldehyde and analysed on either a FACS Calibur or an Intellicyt HTFC. Data was analyzed by FlowJo, Excel and GraphPad Prism.

[10] = biological target: T1, human C1ORF32 protein (SEQ ID NO: 1); experiment: flow cytometry titration of 5159-1 on HEK293T cells expressing human C1ORF32
Protocol: as §4

B1: anti C1ORF32 monoclonal antibody 5166-9 (antibody, V domains shown)
VH: EVKMVESGGGLVQPGGSLKLSCATSGFTFSDYYMYWVRQTPEKRLEWVAYISNGGGSTYYPDTVKGRFTISRDNAKNTLYLQMSRLKSEDTAMYYCARQGYYYGSSPFAYWGQGTLVTVSA
VL: DIVMTQSHKFMSTSVGDRVSITCKASQDVSTAVAWYQQKPGQSPKLLIYSASYRYTGVPDRFTGSGSGTDFTFTISSVQAEDLAVYYCQQHYSTPYTFGGGTKLEIK
notes: Murine IgM k from a hybridoma
CDC activity, EC50, on CHOK1 cells expressing C1ORF32 (CellTiter-Glo viability, rabbit complement, 1 hr) [1]: 33 ng/ml and 0.2 nM | CDC activity, EC50, on HEK293T cells expressing C1ORF32 (CellTiter-Glo viability, rabbit complement, 1 hr) [1]: 1.8 ng/ml and 0.01 nM | binding result [2]: binds | binding result [3]: binds

B4: anti C1ORF32 monoclonal antibody 5166-2 (antibody, V domains shown)
VH: QIQLVQSGPELKKPGETVKISCKASAYTFTDYSMHWVKQAPGKGLKWMGWINTETGEPTYAGDFKGRFAFSLETSASTAYLQINNLKNEDTATYFCVRAGYYDYFDYWGQGTTLTVSS
VL: DIVMTQSHKFMSTSVGDRVSITCKASQDVVTAVAWYQQKPGQSPKLLIYWASNRHTGVPDRFTGSGSGTDFTLTITNVQSEDLADYFCQQYSSYPLTFGGGTKLEIK
notes: Murine IgG1 k from a hybridoma
binding result [2]: binds | binding result [3]: binds

The next lines start with the values.

binding result [4]: binds | binding result [5]: binds | binding result [6]: binds | binding result [7]: binds | binding result [8]: binds
B2: anti C1ORF32 monoclonal antibody 5159-2 (antibody, V domains shown)
VH: QVTLKESDPGILQPSQTLSLTCSFSGFSLSTSGMGVGWIRQPSGKGLEWLAHIWWDDVKRYNSALKNRLTISKDTSSSQVFLKIANVDTADTATYYCARIARHFFDYWGQGTTLTVSS
VL: DIKMTQSPSSMYASLGERVTITCKASQDIHGYLSWFHQKPVKSPKTLIYRANRLIDGVPSRFSGSGSGQDYFLTISSLEYEDMGIYYCLQYDEFPWTFGGGTKLEIK
notes: as for B4

EC50 (read off the curve) [9]: ~1 µg/mL | EC50 (read off the curve) [10]: ~0.8 µg/mL | binding result [4]: binds | binding result [6]: binds | binding result [8]: binds
B3: anti C1ORF32 monoclonal antibody 5159-1 (antibody, V domains shown)
VH: QVTLKESGPGILQPSQTLNLTCSFSGFSLSSSYMGVGWIRQPSGKGLEWLAHIWWDDVKRYNPALKSRLTISKDISNNQVFLKIASVDTADSATYYCGRIDRHYFDYWGQGTILTVSS
VL: B2 VL with M11I, H30N, S34T, H37Q, V41G, I55L, F72S, E79D
notes: as for B4
